# Assay results taken from paper PMC9224989, “Structural Analysis of Human Fascin-1: Essential Protein for Actin Filaments Bundling” (Life, 2022).
# B1: C-terminal half of human fascin 1 (CHF) (domain or fragment)
# chain: not shown
# notes: human fascin 1, residues 260-493 (beta3 and beta4-trefoil domains); also called N-terminal domain deletion (beta-trefoil 1 and 2); C-domain; not shown: His tag (from the vector pFastBacHT)
# Target: the molecule itself
# Test: native gel or EMSA; 8% native PAGE; equal amounts (2.5 μg) of FLF and CHF mixed and incubated for 1 h at 4 °C; lanes CHF, FLF, FLF + CHF
protein,measurement,value
B1,stoichiometry N,2
